In US20240067729A1 (published 2024) one finds IC50 data, which are given here for 9 molecules.

B1: PAL771.2 (antibody, V domains shown)
VH: EVQLQESGAELVKPGASVKLSCTASGFNIKDTYMHWVKQRPEQGLEWIGRIDPANGNTKYDPKFPGKATITADTSSNTAYLQLSSLTSEDAAVYYCARPFNYRFYDVYYFDYWGQGTTLTVST
VL: QIVLTQSPAIMSASPGEKVTMTCSASSSVSYMYWYQQKPGSSPRLLIYDTSNLASGVPLRFSGSGSGTSYSLTLSRMEAEDAATYYCQQWSTYPLTFGAGTKLELK
B2: h769-tm2 (humanized 769-hIgG1 variant) (antibody, V domains shown)
VH: EVQLVQSGAEVKKPGATVKISCKVSGFNIKDTYMHWVQQAPGKGLEWMGLIDPANDNTIYAEKFQGRVTITADTSTDTAYMELSSLRSEDTAVYYCAREGYGGSYGEGYWGQGTLVTVSS
VL: EIVMTQSPPTLSLSPGERVTLSCRASQSVSNDLSWYQQKPGQAPRLLIYYASIRFTGIPARFSGSGYGTDFTLTISSLQPEDFAVYYCQQDYNSPWTFGQGTKVEIK
B3: h769-IF3 (humanized 769-hIgG1 variant) (antibody, V domains shown)
VH: EVQLVQSGAEVKKPGATVKISCKVSGFNIKDTYMHWVQQAPGKGLEWMGLIDPANDNTIYAEKFQGRVTITADTSTDTAYMELSSLRSEDTAVYYCAREGYGGSYGEGYWGQGTLVTVSS
VL: EIVMTQSPPTLSLSPGERVTLSCRASQSVSNDLSWYQQKPGQAPRLLIYYASIRFTGIPARFSGSGSGTDFTLTISSLQPEDFAVYYCQQDYNSPWTFGQGTKVEIK
B4: h769-tm3 (humanized 769-hIgG1 variant) (antibody, V domains shown)
VH: EVQLVQSGAEVKKPGATVKISCKVSGFNIKDTYMHWVQQAPGKGLEWMGLIDPANDNTIYAEKFQGRVTITADTSTDTAYMELSSLRSEDTAVYYCAREGYGGSYGEGYWGQGTLVTVSS
VL: EIVMTQSPPTLSLSPGERVTLSCRASQSVSNDLSWYQQKPGQAPRLLIYYASIRFTGIPARFSGSGSGTDFTLTISSLQPEDFAVYFCQQDYNSPWTFGQGTKVEIK
B5: 769-hIgG1 (chimeric PAL769) (antibody, V domains shown)
VH: EVQLQESGAELVKPGASVTLSCTASGFNIKDTYMHWVKQRPEQGLEWIGRIDPANDNTKYDPKFQDKATITADTSSDTAYLRLSSLTSEDTAVYYCAREGYGGSYGEGYWGQGTTLTVSS
VL: SIVMTQTPKFLLVSAGDRVTITCKASQSVSNDVIWYQQKPGQSPKLLIYYASIRFTGVPDRFAGSGYGTDFTFTINTVQAEDLAVYFCQQDYNSPWTFGGGTKLEIK
B6: 785-hIgG1 (chimeric PAL785) (antibody, V domains shown)
VH: EVQLQESGPELVKPGTSVKMSCKASGYTFTSYVMHWVKQRPGQGLEWIGYINPYNDGSKYNEKFKGKATLTSDTSSSTAYMELSSLTSEDSAVYYCAKQTLDFWGQGTSVTVST
VL: DIVLTQSPASLAVSLGQRATISCRASESVEFYGTTLMQWYQQKPGQPPKLLIYAASNVESGVPARFSGSGSGTDFSLNIHPVEEGDIGMYFCQQSRKVPYTFGGGTKLEIK
B7: 767-hIgG1 (chimeric PAL767) (antibody, V domains shown)
VH: EVQLQESGPSLVKPSQTLSLTCSVTGDSITSGYWNWIRKFPGNKLEYMGYISYTGSTYYNPSLKRRISITRDTSKNQYYLQLNSVTTEDTATYYCASQGGWLQAMDYWGQGTSVTVSS
VL: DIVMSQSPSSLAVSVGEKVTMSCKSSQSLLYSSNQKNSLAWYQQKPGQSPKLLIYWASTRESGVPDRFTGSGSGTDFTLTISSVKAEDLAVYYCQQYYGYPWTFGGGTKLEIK
B8: 752-hIgG1 (chimeric PAL752) (antibody, V domains shown)
VH: EVQLQESGAELARPGASVKLSCKASGHAFTSDSINWVKQRIGQGLEWIGEIYPRSGNPYYNEKFKGKATLTADKSSSTAYMELRSLTSEDSAVYFCATDYYGRYFDVWGTGTTVTVSS
VL: DIQMTQSSFSFSVSLGDRVTIICKASEDIYNRLAWYQQKPGNTPRLLISGATSLETGVPSRFSGSGSGKDYTLSITSLQTEDVATYYCQQYWSTPWTFGGGTKLEIK
B9: 788-hIgG1 (chimeric PAL788) (antibody, V domains shown)
VH: QVQLQQPGAELVKPGASVKLSCKASGYTFTSNWMNWVKQRPGRGLEWIGRIHPSDSETHYHQKFKSKATLTVDKSSSTAYIQLSSLTSEDSAVYYCAHSSGDYGRDYWGQGTTLTVSS
VL: NIVLTQSPASLAVSLGQRATISCRASESVDSYGNSFMHWYQQKPGQPPKLLIYLASNLQSGVPARFSGSGSRTDFTLTIDPVEADDAATYYCQQNNEDPWTFGGGTKLEIK

The first assay deals with T1, human PD-L1 (hPD-L1) coated on ELISA wells, Example 7 (human, UniProt Q9NZQ7 19-238). The experiment in a line: huPD1-Fc blocking ELISA.
T1 sequence (Q9NZQ7 19-238): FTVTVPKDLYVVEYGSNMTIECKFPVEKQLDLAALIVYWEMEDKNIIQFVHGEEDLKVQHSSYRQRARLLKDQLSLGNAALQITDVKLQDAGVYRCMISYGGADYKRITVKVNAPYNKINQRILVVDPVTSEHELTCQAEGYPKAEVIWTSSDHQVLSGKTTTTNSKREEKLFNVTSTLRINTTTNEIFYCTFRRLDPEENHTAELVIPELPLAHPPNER
The term IC50 denotes the concentration that gives 50% inhibition. B1 displayed an IC50 of 0.6 nM.

For a further assay, the target named is T1, human PD-L1 (hPD-L1) coated on ELISA …. The experiment in a line: blocking ELISA (hPD1-Fc binding).
B2 had an IC50 of 1.44 nM. The same measure, in the same setting: the value for B3 was 1.47 nM; that for B4 was 1.29 nM; that for B5 was 1.57 nM.

For a further assay the target is unchanged. The assay is described as follows: Blocking ELISA.
B6 had an IC50 of 1.94 nM. Still for that read-out and setting: then B7, with 2.01 nM. The same measure, in the same setting: the value for B5 was 1.58 nM; that for B8 was 4.64 nM.

In the case of B9, the IC50 stood at 2.93 nM.
